Laboratory results as given in patent US9371393B2, “Class I anti-CEA antibodies and uses thereof” (Immunomedics, Inc., priority 2009, dated 2016).
Entries after “also recorded” stand apart in the source; their conditions may differ.

Assays:
[1] = test system: Moser binding to fibronectin; assay: Adhesion to extracellular matrix proteins assay, Moser; type: cell-based, human
Experimental: (§1) Adhesion to extracellular matrix proteins assay—The assay was done using the CYTOMATRIX™ screening kit from CHEMICON® (Kit #ECM205, Temecula, Calif.). The kit contains 96-well plates with strips coated with fibronectin, vitronectin, laminin, collagen-I, or collagen-IV. Subconfluent cell cultures were used for these studies. Cells (1×10^6 cells/mol) were seeded onto coated substrate and incubated at 37° C. for 1 hour in a CO2 incubator in PBS containing Ca^2+/Mg^2+ (200 μL per well). Adherent cells were fixed and stained. The plate was washed to remove unadhered cells and stained with 100 μL per well of MTS (Cell Titer Aq 96, PROMEGA®, Madison, Wis.) for 5 minutes at room temperature. Excess stain was removed with three PBS washes. Solubilization buffer [100 μL of a 50:50 mixture of 0.1 mol/L NaH2PO4 (pH 4.5) and 50% ethanol] was added to each well. Relative attachment was determined using absorbance readings (A540 nm-A570 nm).

granulocytes = assay: Granulocyte reactivity, whole-blood indirect fluorescent flow cytometric analysis; type: binding
Experimental: Hybridoma supernatants were screened for CEA reactive antibody by the ROCHE® ^125I-CEA radioimmunoassay (RIA) in 0.01 and 0.10 M NH4 acetate buffer. Positive clones were recloned. The granulocyte reactivity of CEA-reactive MAb was determined by whole-blood indirect fluorescent flow cytometric analysis (Sharkey et al. Cancer Res., 1990, 50:2823-31). Two MAb with properties similar to those of NP-2 and NP-3, designated MN-2 and MN-6, were selected for additional development.
Immunoreactivity with blood lymphocytes was determined by live-cell indirect immunofluorescence, with the use of the whole blood staining method developed for use with the ORTHO SPECTRUM® I11 flow cytometer (Ortho Diagnostic Systems, Inc., Raritan, N.J.). Tissue reactivity of the MAb was determined by immunohistologic examination performed on frozen sections and 5-μm sections cut from tissue embedded in Paraplast-II. Indirect immunofluorescence on frozen sections was performed as previously described, with MAb concentrations of 20 μg/ml (Pawlak-Byczkowska et al., Cancer Res 1989, 49:4568-77).

CEA = target: T1, CEA (Homo sapiens, UniProt P06731); assay: Competitive CEA binding against HRP-labeled murine MN-15; conditions: competition with HRP-labeled murine MN-15
T1 sequence (P06731 35-676): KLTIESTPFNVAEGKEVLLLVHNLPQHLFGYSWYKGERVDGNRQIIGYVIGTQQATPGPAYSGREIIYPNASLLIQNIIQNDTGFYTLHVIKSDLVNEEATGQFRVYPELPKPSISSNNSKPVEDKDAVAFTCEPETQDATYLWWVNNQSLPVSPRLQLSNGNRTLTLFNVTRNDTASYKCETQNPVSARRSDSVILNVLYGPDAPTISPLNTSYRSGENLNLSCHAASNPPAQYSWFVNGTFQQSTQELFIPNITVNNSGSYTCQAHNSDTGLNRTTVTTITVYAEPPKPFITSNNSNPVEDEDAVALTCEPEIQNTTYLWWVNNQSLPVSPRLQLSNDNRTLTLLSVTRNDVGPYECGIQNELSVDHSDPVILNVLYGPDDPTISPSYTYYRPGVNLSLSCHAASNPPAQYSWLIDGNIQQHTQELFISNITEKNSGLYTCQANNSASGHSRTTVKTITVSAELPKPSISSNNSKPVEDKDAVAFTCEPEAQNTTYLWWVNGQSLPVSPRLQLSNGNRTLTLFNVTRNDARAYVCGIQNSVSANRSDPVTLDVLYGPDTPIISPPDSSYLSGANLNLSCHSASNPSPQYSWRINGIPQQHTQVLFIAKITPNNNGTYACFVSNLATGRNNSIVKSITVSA
From the text: To make a chimeric MN-15 antibody, the murine MN-15 variable region sequences were attached to human IgG1 constant region sequences, as described in Leung et al., Hybridoma 13:469 (1994). The sequences of the murine MN-15 VK (SEQ ID NO:9) and MN-15 VH (SEQ ID NO:10) used to construct the chimeric MN-15 (cMN-15) are shown in FIG. 2 and FIG. 3.

[2] = test system: MCF-7 adhesion to fibronectin; assay: Adhesion to extracellular matrix proteins assay, MCF-7; type: cell-based, human
Experimental: as §1

[3] = test system: tumor cell adhesion to ECM proteins (fibronectin, vitronectin, laminin, collagen-I, collagen-IV); assay: Adhesion to extracellular matrix proteins assay, panel of six cell lines; type: cell-based, human
Experimental: as §1

[4] = test system: GW-39 human colonic carcinoma; assay: GW-39 intrapulmonary micrometastasis model (GW-39iv), survival; type: in vivo, nude mice; conditions: cells pretreated with Fab′ 10 μg/mol, 100 μg i.v. 1 day after implantation; untreated 42 days
Experimental: FIG. 7 illustrates an exemplary in vivo micrometastasis study. Top, immunohistochemistry of GW-39 tumor sections stained with a nonspecific antibody (left), MN-14 anti-CEACAM5 (middle), and MN-15 anti-CEACAM6 (right) and photographed at 100×. Bottom, survival of nude mice implanted with 30 μL of a 10% suspension of GW-39 human colonic cancer cells. Mice were implanted with cells that were […] for 30 minutes with MN-3-, MN-15-, or hMN-14-Fab′ (10 μg/mol). Mice also received a single 100 μg dose of the same Fab′ 1 day after cell implantation.
In vivo therapy studies—Female athymic nude mice (6 to 8 weeks old) were purchased from TACONIC® (Germantown, N.Y.). Therapy studies were done using our CEACAM5+/CEACAM6+GW-39 intrapulmonary micrometastasis model, GW-39iv (Sharkey et al., J Natl Cancer Inst 1991, 83:627-32; Blumenthal et al., Cancer Res 1992, 52:6036-44). The GW-39 human colonic carcinoma has been maintained as a serially transplanted signet-ring cell cancer line since 1966 (Goldenberg et al., Transplantation 1966, 4:760-4). […] Body weight was monitored weekly and animal survival recorded. Results were analyzed by the Kaplan-Meier estimated survival curves, and significance was determined with the log-rank comparison of survival curves. Median survival time for each treatment group also was determined. […]

| Molecule | effect on binding to fibronectin [1] | granulocyte reactivity (granulocytes) | dissociation constant (CEA) | decrease of adhesion to fibronectin [2] | effect on adhesion to fibronectin [3] | median survival time [4] |
| --- | --- | --- | --- | --- | --- | --- |
| MN-15: murine Class I anti-CEA MAb, IgG1 kappa, binds A1B1 domain of CEACAM5 and CEACAM6 (antibody, V domains shown) VL: DIQLTQSPAIMSASPGEKVTMTCSASSRVSYIHWYQQKSGTSPKRWIYGTSTLASGVPARFSGSGSGTSYSLTISSMEAEDAATYYCQQWSYNPPTFGAGTKLELKR VH: EVRLVESGGGLVQGPGSLRLSCAASGFALTDYYMSWVRQSPGKTLEWLGFIANKANGHTTDYSPSVKGRFTISRDNSQTILYLQMNTLRTEDSATYYCARDMGIRWNFDVWGQGTTVTVSS | not affecting the binding | granulocyte-reactive; also recorded: high granulocyte reactivity; also recorded: reacted strongly with granulocytes | nanomolar range | 29% |  |  |
| MN-15 Fab′: monovalent Fab′ fragment of murine MN-15 (antibody, V domains shown) VL: DIQLTQSPAIMSASPGEKVTMTCSASSRVSYIHWYQQKSGTSPKRWIYGTSTLASGVPARFSGSGSGTSYSLTISSMEAEDAATYYCQQWSYNPPTFGAGTKLELKR VH: EVRLVESGGGLVQGPGSLRLSCAASGFALTDYYMSWVRQSPGKTLEWLGFIANKANGHTTDYSPSVKGRFTISRDNSQTILYLQMNTLRTEDSATYYCARDMGIRWNFDVWGQGTTVTVSS |  |  |  |  | induced a decrease in adhesion of three of six cell lines | > 77 days |
